The results in this text go back to patent US8389468B2, “Approach to the treatment of compartment syndrome” (Lantmannen AS-Faktor AB, priority 2006, dated 2013).

The assay deals with HSV-1 infected rats. Nature of the assay: Intracranial pressure (ICP) and neurological symptoms in HSV-1 infected rats, fibre optic pressure sensor. The note with it: HSV-1 infected rat treated twice daily, day 5. The class given is in vivo, rat. As for the experimental part: Adult rats were infected by having a solution of the Herpes Simplex virus type 1 (HSV-1; strain 2762, batch 041028; 1.7×10^7 PFU/mL; 25 pL) instilled in their right nostril. One group of animals (n=6) received 10 min after the infection 25 pL (10 pg) of AF-16 in their right nostril, and had thereafter the same dose of AF-16 instilled twice daily, every morning at 8 AM and every night at 6 PM, until the experiment was terminated on day 6. Additional HSV-1 infected rats (n=6) received in the nose at the same time intervals 25 pL of the vehicle, phosphate buffered saline (PBS). On day 6, the animals were anaesthetized, a surgical incision made through the skin on the head, and the skull bone freed from periostium and connective tissue. A hole with a diameter of about 1 mm was drilled through the right parietal bone and a miniature pressure sensor inserted 3-5 mm into the brain or into the lateral ventricle. A fibre optic pressure measure system (Samba System 3200 & Samba Preclin 420 sensor; Samba Sensors AB, V Frolunda, Sweden) with a very small diameter, ve. 0.4 mm, was used. […] HSV-1 infected rats treated with just the vehicle were measured to have as high pressures as up to 30-45 mm Hg (FIG. 2a), considerably affect the animals as reflected by symptoms of neurological dysfunction of increasing severity. In contrast, HSV-1 infected rats treated from the time of infection with AF-16 twice daily had almost normal ICP, 8-14 mm Hg (FIG. 2 b).
Additional HSV-1 infected animals with distinctly overt symptoms were as well treated with 10 or 25 pg AF-16 intranasally, starting on day 5, 6 or 7, i.e. after having had the vehicle during the previous days. […] Thus, non of the acutely AF-16 treated rats had any persistent signs of deleterious ICP and thus no CS developed. […] That is seen in the mentioned figure (FIG. 5 a) as there is no red staining of the right half on the figure. However, treatment with 10 or 25 pg AF-16 intranasally turned the picture in HSV-1 infected rats as in the normal, non-infected ones. […] Thereby the outflow of CSF was restored and the ICP turned normal.

B1: AF: antisecretory factor; antisecretory proteins and peptides; in FIG. 2b probably AF-16 (protein, UniProt P55036 1-377, looked up)
26S proteasome non-ATPase …: MVLESTMVCVDNSEYMRNGDFLPTRLQAQQDAVNIVCHSKTRSNPENNVGLITLANDCEVLTTLTPDTGRILSKLHTVQPKGKITFCTGIRVAHLALKHRQGKNHKMRIIAFVGSPVEDNEKDLVKLAKRLKKEKVNVDIINFGEEEVNTEKLTAFVNTLNGKDGTGSHLVTVPPGPSLADALISSPILAGEGGAMLGLGASDFEFGVDPSADPELALALRVSMEEQRQRQEEEARRAAAASAAEAGIATTGTEDSDDALLKMTISQQEFGRTGLPDLSSMTEEEQIAYAMQMSLQGAEFGQAESADIDASSAMDTSEPAKEEDDYDVMQDPEFLQSVLENLPGVDPNNEAIRNAMGSLASQATKDGKKDKKEEDKK
As for B1, the “ICP (FIG. 2b)” value is on record as “almost turned the ICP back to normal levels”.
